Measurements from patent US20210162028A1, “Methods for Inducing Intermittent Fasting and Modulating Autophagy” (The Hong Kong Polytechnic University, priority 2019, published 2021).
Entries after “also recorded” stand apart in the source; their conditions may differ.

Legend:
Assay type in all cases: in vivo, mouse
[1] = Fat pad and organ mass at end of treatment; settings: DIO C57BL/6J male mice on HFD, about 600 U once a week, 34 weeks
From the text: Other than WAT and BAT, obesity is associated with excessive accumulation of lipids in the liver (hepatic steatosis). Indeed, the liver of vehicle-treated DIO mice was markedly enlarged (FIG. 7A), with a mass about 3 times (4.68 g) that of the lean control (1.73 g) (FIG. 7B).
Other than liver, obesity is also commonly associated with lipid accumulation in the kidney (renal steatosis) and heart (cardiac steatosis), causing lipotoxicity and dysfunction of these organs. Indeed, there was an increase in kidney and heart mass in DIO mice treated with vehicle (FIG. 8A and FIG. 9A).

[2] = Glucose tolerance test (GTT)
hepatocyte = assay: Transmission electron microscopy of liver (hepatocytes); settings: for TEM of liver: autophagosomes / TEM of liver: lipid droplets: DIO C57BL/6J male mice on HFD, 3 weeks, Day 3
From the text: FIG. 47 illustrates the liver examined by transmission electron microscopy at Day 1, Day 3, Day 5 and Day 7 of the 7-day intermittent after N-ABD094-rhArg injection.
The presence of autophagosome in liver after treatment for 3 weeks were examined by TEM (FIGS. 62, 63 and 64).
The presence of autophagosome in liver after treatment for 3 weeks were examined by transmission electron microscopy (FIGS. 71 and 72).

hepatocellular carcinoma = assay: Frequency of hepatocellular carcinoma at autopsy
From the text: Development of neoplasm in the liver is one of the major characteristics of aging in C57BL/6J male mice with long-term feeding on a HFD, which may be related to the development of severe non-alcoholic fatty liver disease. Treatment with N-ABD094-rhArg [SEQ ID NO: 50] can effectively reverts hepatic steatosis and lower serum concentrations of liver damage biomakers ALT and AST (FIG. 7). Autopsy performed at the end of experiment confirmed the presence of hepatocellular carcinoma (FIG. 28A) in around 40% of C57BL/6J male mice that had been fed on a HFD for 46 weeks (12+34 weeks) starting from 5-week old [HFD (vehicle) group in FIG. 1] (FIG. 28B). The incidence rate even increased to 100% in mice fed on the HFD for 61 weeks (12+49 weeks) [HFD (vehicle) group in FIG. 3] (FIG. 28C). […] These findings support that rhArg has potent effects on prevention of liver cancer.

[3] = Daily food intake / 7-day intermittent fasting cycle in mice
From the text: One of the most noticeable effects of intermittent fasting is reduction of bodyweight. […] Specifically, C57BL/6J, which is the most commonly used mouse strain for polygenic obesity model, was used in the study. It is well-reported that C57BL/6J male mice feeding on a high-fat diet will have prominent weight gain, become obese and develop hyperinsulinemia, hyperglycemia, impaired glucose tolerance and insulin resistance [Gallou-Kabani et al., 2007, Obesity 15(8):1996-2005]. Obesity was induced in C57BL/6J male mice via feeding ad libitum a high-fat diet containing 60 kcal % fat (HFD; Research Diets, D12492) for 12-14 weeks starting from 5-week old. These mice are referred as diet-induced obese (DIO) mice. DIO mice were stratified according to bodyweight into 2 groups. […] Both groups of mice continued to feed ad libitum on the HFD throughout the treatment period. One group of age-matched C57BL/6J male mice feeding ad libitum on an ordinary rodent chow diet (CD; LabDiet, 50IF/6F) and injected with vehicle served as the lean control [CD (vehicle) group]. Food intake and bodyweight of mice were measured daily. […] DIO mice were injected with rhArg on Day 0, which was Day 7 of the previous cycle. Similarly, Day 7 of the cycle shown in FIG. 1B was Day 0 of the next cycle. […] Bodyweight gain is one of the biomarkers related to aging.
C57BL/6J male mice were fed a high-fat diet from 5-week old for 12 weeks. They were then stratified into 3 groups according to their bodyweight and individually caged: (i) one group of mice received i.p. injection of 600 U N-ABD094-rhArg (SEQ ID NO: 50) once a week [HFD (rhArg) group] and was fed ad libitum the HFD for 5 weeks; (ii) one group of mice received i.p. injection of saline once a week, and was fed a predetermined amount of HFD on each day to artificially create a 7-day intermittent fasting cycle that mimics the pattern of food intake of mice administered once a week with rhArg [HFD (artificial IF) group)]; (iii) one group of mice was injected with saline once a week and was fed ad libitum the HFD [HFD (vehicle) group].

[4] = Inverted grid hanging test
[5] = 300 U/week rhArg and/or 300 mg/kg metformin
[6] = rhArg weekly and/or 0.33 mg RA daily
[7] = HFD-fed male mice, 600 U once a week, 4 weeks
[8] = DIO C57BL/6J male mice on HFD, about 600 U i.p. once a week, 34 weeks
[9] = DIO C57BL/6J male mice on HFD, about 600 U once a week, 49 weeks

B1: N-ABD094-rhArg: recombinant human arginase fused to albumin binding domain ABD094 (SEQ ID NO: 50); engineered long-acting arginine-depleting enzyme (protein)
chain: MHHHHHHDEAVDANSLAEAKEAANAELDSYGVSDFYKRLIDKAKTVEGVEALKDAILAALPSGSNNNNNNGSGGMSAKSRTIGIIGAPFSKGQPRGGVEEGPTVLRKAGLLEKLKEQECDVKDYGDLPFADIPNDSPFQIVKNPRSVGKASEQLAGKVAEVKKNGRISLVLGGDHSLAIGSISGHARVHPDLGVIWVDAHTDINTPLTTTSGNLHGQPVSFLLKELKGKIPDVPGFSWVTPCISAKDIVYIGLRDVDPGEHYILKTLGIKYFSMTEVDRLGIGKVMEETLSYLLGRKKRPIHLSFDVDGLDPSFTPATGTPVVGGLTYREGLYITEEIYKTGLLSGLDIMEVNPSLGKTPEEVTRTVNTAVAITLACFGLAREGNHKPIDYLNPPK
modifications: N-ABD094-rhArg, Synthesized in the Lab
notes: engineered long-acting arginine-depleting enzyme
For B1, the “Kidney and heart mass” value [1] was “significantly less than that of the vehicle-treated DIO mice”, the “Mass of perirenal, inguinal and interscapular fat pad, relative to DIO mice treated with vehicle” value [1] was “less than 20%” and the Liver mass ([1]; vehicle DIO 4.68 g, lean control 1.73 g) was 1.39 g. For the same molecule, the “Glucose tolerance in GTT” value ([2]; 16-month old DIO C57BL/6J male mice on HFD, once a week, at 12 weeks) was “effectively reverse impaired glucose tolerance”, the “Glucose tolerance in GTT” value ([2]; 17-month old C57BL/6J male mice on chow diet, once a week, at 15 weeks) was “to a level better than mice in CD Young (vehicle) group; also recorded: effectively improve glucose tolerance” and the “Glucose tolerance in GTT” value ([2]; DIO C57BL/6J male mice on HFD, 300 U/week rhArg and/or 300 mg/kg metformin, after 7 weeks) was “significant improvement on glucose tolerance”. For the same molecule, the “Glucose tolerance in GTT” value ([2]; DIO C57BL/6J male mice on HFD, 600 U once a week, after 3 weeks (reduced daily food intake experiment)) was “improved glucose tolerance”, the “Glucose tolerance in GTT” value ([2]; DIO C57BL/6J male mice on HFD, 600 U once a week, at 3 weeks (artificial IF experiment)) was “significant improvement in glucose tolerance by 3 weeks of treatment” and the “Glucose tolerance in GTT” value ([2]; DIO C57BL/6J male mice on HFD, about 600 U once a week, at 15 and 31 weeks) was “significant improvement in glucose tolerance to a level comparable with the lean control mice; also recorded: effectively reverse impaired glucose tolerance”. The “Glucose tolerance in GTT” value ([2]; DIO C57BL/6J male mice on HFD, rhArg weekly and/or 0.33 mg/day RA, after 7 weeks) was “cannot relieve glucose intolerance”, the “Glucose tolerance in GTT” value ([2]; DIO ICR female mice on HFD, once a week, at 16 and 30 weeks) was “Improved glucose tolerance” and the “TEM of liver: autophagosomes” value (hepatocyte; [5]) was “autophagosome was rarely seen”. The “TEM of liver: lipid droplets” value (hepatocyte; [5]) was “significant decrease in lipid droplet size”, the “TEM of liver: autophagosomes” value (hepatocyte; 300 U/week rhArg and/or 300 mg/kg metformin, listed as N-ABD-rhArg (SEQ ID NO: 50)) was “no autophagosome is observed” and the “TEM of liver: autophagosomes” value (hepatocyte; [6]) was “autophagosome was rarely seen”. The “TEM of liver: lipid droplets” value (hepatocyte; [6]) was “significant decrease in lipid droplet size”, the “TEM of liver: autophagosomes” value (hepatocyte; rhArg weekly and/or 0.33 mg RA daily, listed as N-ABD-rhArg (SEQ ID NO: 50)) was “no autophagosome is observed” and the “TEM of liver, Day 1 of the 7-day cycle” value (hepatocyte; [7]) was “autophagosomes and autolysosomes were found in the hepatocye”. For the same molecule, the “TEM of liver, Day 3 of the 7-day cycle” value (hepatocyte; [7]) was “extensive lipophagy was observed”, the “TEM of liver, Day 5 of the 7-day cycle” value (hepatocyte; [7]) was “autolysosome and lipophagy became rare” and the “TEM of liver, Day 7 of the 7-day cycle” value (hepatocyte; [7]) was “no autophagosome and no lipophagy was observed”. For the same molecule, the “Development of hepatocellular carcinoma” value (hepatocellular carcinoma; DIO C57BL/6J male mice on HFD, weekly for 34 weeks, vehicle around 40%) was “none of the mice developed hepatocellular carcinoma”, the “Development of hepatocellular carcinoma” value (hepatocellular carcinoma; DIO C57BL/6J male mice on HFD, weekly for 49 weeks, vehicle 100%) was “none of the mice developed hepatocellular carcinoma” and the “Development of hepatocellular carcinoma” value (hepatocellular carcinoma; DIO ICR female mice on HFD, weekly for 56 weeks, vehicle over 30%) was “none of the mice in HFD (rhArg) group developed hepatocellular carcinoma; also recorded: effectively prevent the development of hepatocellular carcinoma”. For the same molecule, the “Pattern of food intake (intermittent fasting cycles)” value ([3]; 16-month old DIO C57BL/6J male mice on HFD, about 600 U once a week, 25 weeks) was “induce repetitive 7-day intermittent fasting cycles”, the “Pattern of food intake (intermittent fasting cycles)” value ([3]; 17-month old C57BL/6J male mice on chow diet, about 600 U once a week, 21 weeks) was “induce repetitive 7-day intermittent fasting cycles” and the “Pattern of food intake (intermittent fasting cycles)” value ([3]; 25-month old C57BL/6J male mice on chow diet, about 600 U once a week, 30 weeks) was “prominent repetitive 7-day intermittent fasting cycles”. For the same molecule, the “Pattern of food intake (intermittent fasting cycle)” value ([3]; DIO C57BL/6J male mice on HFD, 200 U rhArg i.p. once a week and/or 0.33 mg RA daily) was “weak 7 days intermittent fasting cycle”, the “Total food intake per week, less than HFD (vehicle) group” value ([3]; DIO C57BL/6J male mice on HFD, 200 U rhArg i.p. once a week and/or 0.33 mg RA daily by gastric feeding, 10 weeks) was “slight, but insignificant decrease” and the “Pattern of food intake (intermittent fasting cycle)” value ([3]; DIO C57BL/6J male mice on HFD, 200 U rhArg i.p. once a week and/or 0.33 mg RA daily, listed as rhArg) was 7-day pattern of decreased food intake followed by an increase of food intake, but the magnitude was less than HFD (rhArg+RA) group. For the same molecule, the “Pattern of food intake (intermittent fasting cycle)” value ([3]; DIO C57BL/6J male mice on HFD, 300 U rhArg i.p. once a week and/or 300 mg/kg metformin daily) was “weak intermittent fasting cycle”, the “Total food intake per week, less than HFD (vehicle) group” value ([3]; DIO C57BL/6J male mice on HFD, 300 U rhArg i.p. once a week and/or 300 mg/kg metformin daily by gastric feeding, 9 weeks) was “did not induce significant change in total food intake per week” and the “Pattern of food intake (intermittent fasting cycle)” value ([3]; DIO C57BL/6J male mice on HFD, 300 U rhArg i.p. once a week and/or 300 mg/kg metformin daily, listed as rhArg) was 7-day pattern of decreased food intake followed by an increase of food intake, but the magnitude was less than HFD (rhArg+Met) group. For the same molecule, the “Total food intake per week, less than HFD (vehicle) group” value ([3]; DIO C57BL/6J male mice on HFD, 600 U i.p. once a week, 5 weeks (artificial IF experiment)) was 26%, the “Reduction of total food intake per week” value ([3]; DIO C57BL/6J male mice on HFD, 600 U i.p. once a week, 5 weeks (reduced daily food intake experiment)) was 30% and the “Pattern of food intake (intermittent fasting cycles)” value [3, 8] was “repetitive cycles of intermittent fasting; also recorded: repetitive 7-day intermittent fasting cycles”. For the same molecule, the “Total food intake per week, less than HFD (vehicle) group” value [3, 8] was “about 30%”, the “Pattern of food intake (intermittent fasting cycles)” value [3, 9] was “repetitive 7-day intermittent fasting cycles” and the “Total food intake per week, less than HFD (vehicle) group” value [3, 9] was “about 29%”. For the same molecule, the “Pattern of food intake (intermittent fasting cycles)” value ([3]; DIO C57BL/6J male mice on HFD, about 600 U once a week, 49 weeks, listed as rhArg) was “repetitive cycles of intermittent fasting”, the “Pattern of food intake (intermittent fasting cycles)” value ([3]; DIO ICR female mice on HFD, about 1200 U i.p. once a week, 56 weeks) was “repeatedly occurring in ICR female mice throughout the 56 weeks of treatment period; also recorded: repetitive 7-day intermittent fasting cycles” and the “Inverted grid hanging test: endurance (latency to fall)” value ([4]; DIO C57BL/6J male mice on HFD, weekly for 42 weeks) was “endurance even higher than mice in CD (vehicle) group”. The “Inverted grid hanging test: performance” value ([4]; DIO ICR female mice on HFD, weekly, at 54 weeks) was “significantly better than mice in HFD (vehicle) group”.
